Test results reported in patent US20250270332A1 (ANTLERA THERAPEUTICS, published 2025).

T1: FZD4 recombinant extracellular domain, Fc fusion (FZD-Fc) (UniProt Q9ULV1 37-180)
T1 construct: extracellular domain; also called FZD4 ECD; not shown: Fc part of the FZD-Fc protein
T1 sequence (looked up): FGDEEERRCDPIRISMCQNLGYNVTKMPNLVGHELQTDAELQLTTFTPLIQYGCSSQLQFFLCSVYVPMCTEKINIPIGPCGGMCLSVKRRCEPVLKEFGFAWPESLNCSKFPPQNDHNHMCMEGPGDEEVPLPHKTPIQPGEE


Target: T1, FZD4 recombinant extracellular domain, …
Test: BLI (Octet), FZD-Fc captured on AHQ sensors, agonist in solution; apparent affinity

Binder | Kd
FZD4 Agonist ANT20 (bispecific antibody, Diabody-Fc-Fab format) heavy 1: EVQLVESGGGLVQPGGSLRLSCAASGFDFTAYAMHWVRQAPGKGLEWVASIYPSGGYTAYADSVKGRFTISADTSKNTAYLQMNSLRAEDTAVYYCARRSYYFALDYWGQGTLVTVSSGGGGSDIQMTQSPSSLSASVGDRVTITCRASQSVSSAVAWYQQKPGKAPKLLIYSASSLYSGVPSRFSGSRSGTDFTLTISSLQPEDFATYYCQQASYAPITFGQGTKVEIKGGGGSGGGGSEPKTSDKTHTCPPCPAPELLGGPSVFLFPPKPKDTLMISRTPEVTCVVVAVSHEDPEVKFNWYVDGVEVHNAKTKPREEQYGSTYRVVSVLTVLHQDWLNGKEYKCKVSNKALPAPIEKTISKAKGQPREPMVFDLPPSREEMTKNQVSLWCMVKGFYPSDIAVEWESNGQPENNYKTTPPVLDSDGSFFLYSKLTVDKSRWQQGNVFSCSVMHEALHNHYTQKSLSLSPGKGGGSGGGSGGGSGGGSGSTGEVQLVESGGGLVQPGGSLRLSCAASGFTLSSYSMHWVRQAPGKGLEWVAYISSYYGYTYYADSVKGRFTISADTSKNTAYLQMNSLRAEDTAVYYCARPAPGHWGFDYWGQGTLVTVSSASTKGPSVFPLAPSSKSTSGGTAALGCLVKDYFPEPVTVSWNSGALTSGVHTFPAVLQSSGLYSLSSVVTVPSSSLGTQTYICNVNHKPSNTKVDKKVEPKSCDKTHT heavy 2: EVQLVESGGGLVQPGGSLRLSCAASGFNLSYYYMHWVRQAPGKGLEWVASIYSSYGYTYYADSVKGRFTISADTSKNTAYLQMNSLRAEDTAVYYCARWSHVSGHYSGMDYWGQGTLVTVSSGGGGSDIQMTQSPSSLSASVGDRVTITCRASQSVSSAVAWYQQKPGKAPKLLIYSASDLYSGVPSRFSGSRSGTDFTLTISSLQPEDFATYYCQQYAGAGLITFGQGTKVEIKGGGGSGGGGSEPKSSDKTHTCPPCPAPELLGGPSVFLFPPKPKDTLMISRTPEVTCVVVAVSHEDPEVKFNWYVDGVEVHNAKTKPREEQYGSTYRVVSVLTVLHQDWLNGKEYKCKVSNKALPAPIEKTISKAKGQPREPQVYTLPPIRELMTSNQVSLSCAVKGFYPSDIAVEWESNGQPENNYKTTPPVLDSDGSFFLVSKLTVDKSRWQQGNVFSCSVMHEALHNHYTQKSLSLSPGKGGGSGGGSGGGSGGGSGSTGEVQLVESGGGLVQPGGSLRLSCAASGFTLSSYSMHWVRQAPGKGLEWVAYISSYYGYTYYADSVKGRFTISADTSKNTAYLQMNSLRAEDTAVYYCARPAPGHWGFDYWGQGTLVTVSSASTKGPSVFPLAPSSKSTSGGTAALGCLVKDYFPEPVTVSWNSGALTSGVHTFPAVLQSSGLYSLSSVVTVPSSSLGTQTYICNVNHKPSNTKVDKKVEPKSCDKTHT light: DIQMTQSPSSLSASVGDRVTITCRASQSVSSAVAWYQQKPGKAPKLLIYSASSLYSGVPSRFSGSRSGTDFTLTISSLQPEDFATYYCQQWYYAPITFGQGTKVEIKRTVAAPSVFIFPPSDEQLKSGTASVVCLLNNFYPREAKVQWKVDNALQSGNSQESVTEQDSKDSTYSLSSTLTLSKADYEKHKVYACEVTHQGLSSPVTKSFNRGEC | 0.7 nM
FZD4 Agonist ANT21 (bispecific antibody, Diabody-Fc-Fab format) heavy 1: EVQLVESGGGLVQPGGSLRLSCAASGFNFSSSSIHWVRQAPGKGLEWVASISSSYGYTYYADSVKGRFTISADTSKNTAYLQMNSLRAEDTAVYYCARGGSGVSHYGSVYYSWWALDYWGQGTLVTVSSGGGGSDIQMTQSPSSLSASVGDRVTITCRASQSVSSAVAWYQQKPGKAPKLLIYSASSLYSGVPSRFSGSRSGTDFTLTISSLQPEDFATYYCQQYWAYYSPITFGQGTKVEIKGGGGSGGGGSEPKTSDKTHTCPPCPAPELLGGPSVFLFPPKPKDTLMISRTPEVTCVVVAVSHEDPEVKFNWYVDGVEVHNAKTKPREEQYGSTYRVVSVLTVLHQDWLNGKEYKCKVSNKALPAPIEKTISKAKGQPREPMVFDLPPSREEMTKNQVSLWCMVKGFYPSDIAVEWESNGQPENNYKTTPPVLDSDGSFFLYSKLTVDKSRWQQGNVFSCSVMHEALHNHYTQKSLSLSPGKGGGSGGGSGGGSGGGSGSTGEVQLVESGGGLVQPGGSLRLSCAASGFTLSSYSMHWVRQAPGKGLEWVAYISSYYGYTYYADSVKGRFTISADTSKNTAYLQMNSLRAEDTAVYYCARPAPGHWGFDYWGQGTLVTVSSASTKGPSVFPLAPSSKSTSGGTAALGCLVKDYFPEPVTVSWNSGALTSGVHTFPAVLQSSGLYSLSSVVTVPSSSLGTQTYICNVNHKPSNTKVDKKVEPKSCDKTHT heavy 2: EVQLVESGGGLVQPGGSLRLSCAASGFNFSSSSIHWVRQAPGKGLEWVASISSSYGYTYYADSVKGRFTISADTSKNTAYLQMNSLRAEDTAVYYCARSWAMDYWGQGTLVTVSSGGGGSDIQMTQSPSSLSASVGDRVTITCRASQSVSSAVAWYQQKPGKAPKLLIYSASSLYSGVPSRFSGSRSGTDFTLTISSLQPEDFATYYCQQSSYSLITFGQGTKVEIKGGGGSGGGGSEPKSSDKTHTCPPCPAPELLGGPSVFLFPPKPKDTLMISRTPEVTCVVVAVSHEDPEVKFNWYVDGVEVHNAKTKPREEQYGSTYRVVSVLTVLHQDWLNGKEYKCKVSNKALPAPIEKTISKAKGQPREPQVYTLPPIRELMTSNQVSLSCAVKGFYPSDIAVEWESNGQPENNYKTTPPVLDSDGSFFLVSKLTVDKSRWQQGNVFSCSVMHEALHNHYTQKSLSLSPGKGGGSGGGSGGGSGGGSGSTGEVQLVESGGGLVQPGGSLRLSCAASGFTLSSYSMHWVRQAPGKGLEWVAYISSYYGYTYYADSVKGRFTISADTSKNTAYLQMNSLRAEDTAVYYCARPAPGHWGFDYWGQGTLVTVSSASTKGPSVFPLAPSSKSTSGGTAALGCLVKDYFPEPVTVSWNSGALTSGVHTFPAVLQSSGLYSLSSVVTVPSSSLGTQTYICNVNHKPSNTKVDKKVEPKSCDKTHT light: DIQMTQSPSSLSASVGDRVTITCRASQSVSSAVAWYQQKPGKAPKLLIYSASSLYSGVPSRFSGSRSGTDFTLTISSLQPEDFATYYCQQWYYAPITFGQGTKVEIKRTVAAPSVFIFPPSDEQLKSGTASVVCLLNNFYPREAKVQWKVDNALQSGNSQESVTEQDSKDSTYSLSSTLTLSKADYEKHKVYACEVTHQGLSSPVTKSFNRGEC | 2.2 nM
